Experiment [1] concerns the target N2 A/HongKong/2671/2019 (Influenza A virus (H3N2)).
Experiment [2] concerns the target N2 A/Switzerland/8060/2017 (Influenza A virus (H3N2)).

Among the data in patent US20260184814A1, “BROADLY NE[…] INFLUENZA NEURAMINIDASE” (priority 2022, published 2026) are Kd values, retold here.

In general, Kd refers to the concentration at which binding is half-saturated. A low value points to a tighter complex.

For the substance 1G01 Fab, the equilibrium dissociation constant (Kd) in experiment [1] and in experiment [2] was below 0.02 nM throughout.
